These results are taken from a protein production outcome set (Wang et al. 2014).

A short description of the data set: label from the status in PepcDB records.
For the sequence “MERNVTLDFVRGVAILGILLLNISAFGLPKAAYLNPAWYDAITPQDAWTWAFLDLIGQVKFLTLFALLFGAGLQMLLPRGRRWIQSRLTLLVLLGFIHGLLFWDGDILLAYGLVGLGVLLLLGLISDSQTSRAWTPDASAILYEKYWKLHGGVEAISNRADGVGNSLLALGAQYGWQLAGMMLIGAALMRSGWLKGQFSLRHYRRTGFVLVAIGVTINLPAIALQWQLDWAYRWCAFLLQMPRELSAPFQAIGYASLFYGFWPQLSRFKLVLAIACVGRMALTNYLLQTLICTTLFYHLGLFMHFDRLELLAFVIPVWLANILFSVIWLRYFRQGPVEWLWRQLTLRAAGPAISKTSR”, the protein production entry is reported as “failed”. The entry for “MNFLSIFVLIPLLMLAGLWAARGIKAIRGVMVTGASALLIASVVLTFMYLGERSAGNTAEMLFRADTLWYAPLHISYSVGVDGISVAMLLLSAVIVFTGTFASWRLQPLTKEYFLWFTLLSMGVFGFFISIDLFTMFMFYEIALIPMYLLIGVWGSGRKEYAAMKLTLMLMGGSAFLLIGILGIYFGSGATTMNLLEIAQLHNIPFAQQCIWFPLTFLGFGVLGALFPFHTWSPDGHASAPTAVSMLHAGVLMKLGGYGCFRIAMYLMPEAANELSWIFLILTGISVVYGAFSACVQTDLKYINAYSSVSHCGLVLFAILMLNQTAATGAILQMLSHGLMTALFFALIGMIYGRTHTRDVRELTGLMKVMPFLSVCYVIAGLANLGLPGLSGFIAEMTIFVGSFQNNDVFHRTLTIIACSSIVITAVYILRLVGKILYGTCTNKHHLALTDATWDERVAVICLIVCVAGLGMAPFWVSHMIGESVLPVVSQLIP” is “failed”. The entry for “MNYQLFKHSDENASYVVFSSGLGGHGSFWQAQLDVFRQYFHVLIYDQEGCHASSELLADGYSFEHLALQVKQLLQQLNIVRFHFIGHALGGFIGIELAHRYASETCQLLSLTLINAWQQLDPHTLRCFTTRIALLQHAGTAAYLHAQALFLYPPLWISEHTALLEQQEAKMQSDFPPHANVLKRLNALMQYQVNTARIDTLKQLPVCLIANQDDMLVPYVQSLNLWKKLPDAQLKLLPYGGHASTVTEARQVNQLMLDFLK” is “failed”. The same measure for “MHGLLPALKRGFKRWIGWRRLGIAASVFIIAFAITTLVRTLKGIDTGVILTALTEIPRGNIGLAAICVFFAFCTLTFYDFFALRTIGKKHVPYRIAALSSFTSYSIGHNIGATVFTGGAIRFRIYSDYGLNAIDVAKICFLSGLTFWLGNIFVLSIGMAVHPDAASSMDQLPSSINRLIALGGLASIGAYLVWLCMGEKRRELGQKGWKVVLPSAPLTLVQILIGVVDLGFCATAMYLLIPATPPIDFLSLAVVFILATLLGFASHAPGSIGVFDAAMLVALPEFGREQLLATLLVFRLLYFVIPFGLAISIMGTRELWMNVVEPWQERRRLAEACAQANLPKQVAAMERERSLRQASKR”: “failed”. For the sequence “MSLRKQSWLWMLLVILSETSATSTLKMFDNSQGMTKAALLAIIILLYCVCYYSLSKAVRHLPVGLAYATWSGTGILLVSTLSIIFYGQHPDIPAIVGMIVIATGIMIMNLFSKMGVDEQPEKLDSSNQSQPLETKIIH”, the protein production entry is recorded as “failed”. The entry for “SSLLDGLASSPRAPLQSSKARMKKLPKKSQNEKYRLKYLRLRKAAKATVFENAAICDEIARLEEKFLKAKEERRYLLKKLLQLQALTEGEVQAAAPSHSSSLPLTYGVASSVGTIQGAGPISGPSTGAEEPFGKKTKKEKKEKGKENNKLEVLKKTCKKKKMAGGARKLVQPIALDPSGRPVFPIGLGGLTVYSLGEIITDRPGFHDESAIYPVGYCSTRIYASMKCPDQKCLYTCQIKDGGVQPQFEIVPEDDPQNAIVSSSADACHAELLRTISTTMGKLMPNLLPAGADFFGFSHPAIHNLIQSCPGARKCINYQWVKFDVCKPGDGQLPEGLPENDAAMSFEAFQRQIFDEDQNDPLLPGSLDLPELQPAAFVSSYQPMYLTHEPLVDTHLQHLKSPSQGSPIQSSD” is “not failed”; for “MVKCLSAHNKAPHVSVITPSYNSIRFIGETIVSVQNQSYENWEMIIVDDASTDESVTKIKEIIEGDSRIRLVSLKENIGAAKARNIAIQEARGRYIAFLDSDDIWLPHKLKTQLLFMEEMSVAFSYASYSLIDENGNGLNREVNVPKSVDYHCLAGNTIIGCLTVIIDREKIPHIEMPSVQPEDTALWLKLLHEGHEAKGIQQVLAKYRIVANSVSRNKIKAAFRYWKLLRDQKCLNAVQIFYYFSKYAYHAYRKNKINVVGKTQL” it is “failed”. The same measure for “MWKRGKISTQLDDDEFRAGMRKAQVIDVREKKEFDAGHILGARNIPYSQMKNRTQELRSDLPVYLYDQGRTFSGRAAMLLSKKGFTQLYILKNGYQRWTGKTKKTKYLEHHHHHH”: “not failed”; for “RGLALCREHYLDWFVKETERAIRRHRMLLPGERVLVAVSGGKDSLALWDVLSRLGYQAVGLHIELGIGEYSKRSLEVTQAFARERGLELLVVDLKEAYGFGVPELARLSGRVACSACGLSKRYIINQVAVEEGFRVVATGHNLDDEAAVLFGNLLNPQEETLSRQGPVLPEKPGLAARVKPFYRFSEREVLSYTLLRGIRYLHEEC”: “failed”. The same measure for “MGHHHHHHSHSGNIRLETAAETQAFAEELGRHLEAGDVIILDGPLGAGKTTFTQGLARGLNVKGRVTSPTFVIAREHKSLSGGPSLVHVDAYRLIDDAAGATDPIGALDSLDLETELEDAVVVAEWGGGLVEQITDSYLLITFDRT”: “not failed”. In the case of “MKSENVNKRDEYQRVFSCFDKSHQGKVSVSTIERCVDAIKSGKRAVVDQEDTTNPNPEESTDDKSLELEDFVKLVEEGEEADKEKDLKEAFKLYEESEGITPKSLKRMLSLLGESKSLKDCEVMISQFDINRDGIINFDEFRAMMQ”, the protein production entry is on record as “failed”.

As for “MPQLQKEWFDTWFDTPYYHILYSNRDESEAEVFLTNLMNHMAVPKGASILDLPCGKGRHTLFLAEKGYTLTGADLSVASIALAQSHAPAGVTFLVHDLRKPAWNESFDYVLNLFTSFGYFETEAEDRAAFTTLSKALKSGGSLVIDFMNVTRAVNLLKEEETKVMEGIEFQLKRYVKDGYIHKEIRFEADNTPFFFTERVKALTLDDFKEFFTFAGLTLVDTFGSYQLDAYDAAESDRLIMIAKKLEHHHHHH”, the protein production entry was “not failed”. As to “RTDVIVVGVLDWKKGNLSFVSIPRDLMIEGKKINAIYNTYGMEKLFQIIESLLGQKPDSYVIFNYEAFKILVDELGPIEVIPNEVMFYEDLSQNLVIDFKPGVPYKLNGEQLLAYIRYRKDSMGDLARIERQKDVLKKLLSKALS”, the protein production entry is listed as “failed”. The same measure for “MEQMIFIRKDDKVEVFSEEEELKGSYYRAILEDNPTKSGHNKLKVRYLTQLNEHRLAPLTEFVDQRFIRPVPSEDVNDGVVFVEGLMVDAYLKDGWWTGVVVKTMEDEKFLVYFDCPPDIIQFEKKKLRVHLDWTGFKWIRPDNKELVKSVFSCGTMVELRFDCAWIPVIVIKELEKDKRFLVKYWNKSYSCRESKNLIVDSLRLRPMQPPLSVGKYELLDHVEAFSGFEWRQGVVRGIVFEGRYMVSFGATKEASQFNHSDIRPPMEWEDGVWHKRTKPKRQKETSLDGNRNVQTKEPPGNEMADDVKKESGLPITLGVTATKNKTQGKVSPVPMKNGFGNESTREKMPEEPKIKYYTRKRKRGGLKLNSYINKTVLSSDRTPNVVKNSASNAEENHAKHTIMVLPFAKKSPVWKTYESLEVFKSVSHSLHFSPLFETKQDFREGYAIGMMVTYFGLLEKFKDLEADVPVSQLNSLKDSFSELEKHGFNVTTPLSRIDKLLALKDRQLYIMEELKGFDKEMTNEFSKAKQEFDDMEQKILEVKHKIIELQRQEAALKEQKEAEKEQKDAAWKKICQMESCAKDLNVELEDVEFEFETILSAPW”: “failed”.
